1 substance from patent US6673770B1, “Peptides for the treatment, prophylaxis, diagnosis and monitoring of autoimmune diseases” (Upither B.V., priority 1998, dated 2004) can be followed below.

The assay has as its target MHC class II RT1.B^L (Lewis rat), isolated molecules (rat (Lewis)).

For mycobacterial hsp65 180-188 peptide …, the IC50 lay in the range of 32 to 64 µM.

By IC50 is commonly meant the concentration needed to halve the response being measured. Lower therefore signals greater potency.
